From publication PMC7112944 (Science Advances, 2020) come the findings set out here.

The target in experiment [1] is T1, N_(460–525) (measles virus, UniProt P04851 460-525).
T1 sequence (looked up): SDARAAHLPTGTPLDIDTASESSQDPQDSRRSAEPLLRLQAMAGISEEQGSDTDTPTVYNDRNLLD
Nature of the experiment: ITC.

In experiment [2] the target is T1, N_(460–525). The experiment is described as follows: ITC + NMR titration.

B1: Phosphoprotein XD domain (PXD), P_(457–507) (domain or fragment, measles virus, UniProt P03422 457-507, looked up)
chain: GPASRSVIRSIIKSSRLEEDRKRYLMTLLDDIKGANDLAKFHQMLMKIIMK
In the case of B1, in the experiment with N_(460–525) [1], the dH is -10.46 ± 0.0465 kcal/mol and the “stoichiometry N” value came out at 0.927 sites. Further, the dissociation constant (Kd) with N_(460–525) [2] was about 5 µM.

Usually stoichiometry N stands for a count of units in the complex or per binding partner. What is called Kd is the constant that tells how readily two partners part at equilibrium.
